Assay [1] concerns the target H5 Hemagglutinin (HA, A/Vietnam/1203/2004 (H5N1), Protein Sciences Cat. No. 3006) (influenza A virus A/Vietnam/1203/2004 (H5N1)). Put plainly: SPR (Biacore), H5 coupled on CM5, 1:1 Langmuir model. A general note: SPR reads the build-up and loss of mass on a sensor chip optically.
Substrate in assay [2]: F protein of hRSV strain Long (human respiratory syncytial virus, strain Long) (UniProt P12568)
Put plainly: cell-based or functional assay.

The target of assay [3] is Recombinant his-tagged HA1 from H7N7 strain A/Chicken/Netherlands/01/03 (Abcam Cat. No. ab61286) (Influenza A virus A/Chicken/Netherlands/01/03 (H7N7)).
Substrate in assay [4]: F protein of hRSV strain B-1 (human respiratory syncytial virus, strain B-1 (ATCC VR-1580)) (UniProt P13843)
Put plainly: cell-based or functional assay.

Substrate in assay [5]: F protein of hRSV strain Long (human respiratory syncytial virus, strain Long (ATCC VR-26)) (UniProt P12568)
The assay can be described thus: cell-based or functional assay.

The target in assay [6] is Rabies virus glycoprotein G, Challenge Virus Standard (CVS)-11 strain (Rabies virus, strain CVS-11 (genotype 1 Lyssavirus)) (UniProt O92284). The assay can be described thus: cell-based or functional assay.
For assay [7], the target named is Rabies virus glycoprotein G, ERA strain (attenuated vaccine strain, ATCC VR332) (Rabies virus, ERA strain (genotype 1 lyssavirus)) (UniProt P03524). The assay can be described thus: cell-based or functional assay.
Substrate in assay [8]: F protein of RSV A-2 (human respiratory syncytial virus, strain A-2) (UniProt P03420)
The assay can be described thus: cell-based or functional assay.

Substrate in assay [9]: F protein of RSV B-1 (human respiratory syncytial virus, strain B-1) (UniProt P13843)
Put plainly: cell-based or functional assay.

Substrate in assay [10]: F protein of RSV Long (RSV LONG M-2) (human respiratory syncytial virus, strain Long) (UniProt P12568)
The assay can be described thus: cell-based or functional assay.

This note sets out measurements from patent US20200123233A1.

A word on the Kd: it is the constant that tells how readily two partners part at equilibrium. Higher therefore signals lower affinity.

Positions count from the first letter of the chain named.

B1: LG202C8 (VHH)
VHH: EVQLVESGGGLVQPGGSLRLSCTGSGFTFSSYWMDWVRQTPGKDLEYVSGISPSGSNTDYADSVKGRFTISRDNAKNTLYLQMNSLKPEDTALYYCRRSLTLTDSPDLRSQGTQVTVSS
As for B1, the Kd in assay [1] is 10 nM.

B2: 203H9 (VHH)
VHH: B1 VHH with S56G, K87Q
As to B2, in [1], the dissociation constant (Kd) is 15.5 nM.

B3: LG192C6 (VHH)
VHH: EVQLVESGGGLVQAGGSLRLSCEASGRTERYQAMGWFRQAPGKEREFVAVVTRWSGARTVYADSVKGRFTISRDNAENTVYLQMNSLKPEDTAVYTCAADSTNRNRGAIYYTWAYDYWGQGTQVTVSS
Consider B3, for which, in assay [2], the hRSV micro neutralization, strain Long on Hep2 cells is above 3 µM.

B4: LG192H2 (VHH)
VHH: B3 VHH with E29F, R30S, Y31N, Q32Y, A57G, R106S, I109W, Y117H
Turning to B4, in assay [2], the hRSV micro neutralization, strain Long on Hep2 cells was above 3 µM.

B5: IV25 (yeast-produced NANOBODY (VHH sequence)) (VHH)
VHH: QVQLQQSGGGLVQSGGSLSLSCAASGITLNNRVVGWFRQAPGKEREFVGRIMWSVGDTFYARSVKGRFTISRDNAKNTMYLQMNALKPEDTAVYYCAAARDPDLYTGQYEYWGQGTQVTVSS
As for B5, the ELISA titer (NANOBODY concentration giving extinction 1) in [3] is 27.8 ng/mL.

B6: 203B12 (VHH)
VHH: EVQLVESGGGLVQPGGSLRLSCAASGFTFSSYAMGWVRRAPGEGLEWVSSISSGGALPTYADSVKGRFTISRDNVKNTLYLQMNSLKPEDTAVYSCEKYAGSMWTSERDAWGQGTQVTVSS
B6 gave an equilibrium dissociation constant (Kd) in assay [1] of 30 nM.

B7: NC41v06 (VHH)
VHH: EVQLLESGGGLVQPGGSLRLSCAASGGSLSNYVLGWFRQAPGKGREFVAAINWRDDITIGPPNVEGRFTISRDNAKNTLYLQMNSLRPEDTAVYYCGAGTPLNPGAYIYDWSYDYWGQGTLVTVSS
On to B7, for which, in [4], the Neutralization IC50 (nM), B-1 (first assay) was determined as 806 nM. Further, the Neutralization IC50 (nM), Long (first assay) in [5] was 111 nM.

B8: NC41v18 (VHH)
VHH: B7 VHH with A75S
On to B8, for which, in [4], the Neutralization IC50 (nM), B-1 (first assay) was 728 nM and the Neutralization IC50 (nM), B-1 (second assay) amounted to 194 nM. Moreover, in [5], the Neutralization IC50 (nM), Long (first assay) stood at 116 nM and the Neutralization IC50 (nM), Long (second assay) worked out at 98 nM.

B9: IV5 (yeast-produced NANOBODY (VHH sequence)) (VHH)
VHH: QVQLQQSGGGLVQAGGSLRLSCAASGRTFSTTGMGWFRQAPGKEREFVAAFWWTGGQTFYADSVKGRFTISGDNAGNTVDLQMNSLKPEDTAVYACAAMSKPRNLWRTDSYDYWGQGTQVTVSS
As to B9, the ELISA titer (NANOBODY concentration giving extinction 1) in assay [3] was 30.7 ng/mL.

B10: LG192C10 (VHH)
VHH: EVQLVESGGGLVQAGGSLRLSCAASEGYFRNYMVGWFRQAPGGERMFVAAISDTAYYADSVKGRFTISRDNAKNTVYLPMNSLKPEDTAVYYCAAAPKSWGTWPLVADTRSYHFWGQGTQVTVSS
For the molecule B10, the hRSV micro neutralization, strain Long on Hep2 cells in assay [2] was above 3 µM.

B11: LG192A8 (VHH)
VHH: EVQLVESGGGLVQAGGSLRLSCAASERTVIAYTMGWFRRAPGKERDFVAAMNWNGGNTIYADSAKGRFTISRDNAKNTVYLQMNSLKAEDTAVYYCAARPRFWGSYEYDYWGQGTQVTVSS
In [6], B11 showed a CVS-11 neutralizing antibody titer (RFFIT), IU/mg below 0.77 IU/mg; a CVS-11 neutralizing antibody titer (RFFIT), IU/ml below 0.5 IU/ml; a CVS-11 neutralizing antibody titer (RFFIT), IU/µM below 0.02 IU/µM; a CVS-11 neutralizing antibody titer (RFFIT), nM IC50 above 4840 nM. In [7], the ERA neutralizing antibody titer (RFFIT): EU/mg was below 0.77 EU/mg, the ERA neutralizing antibody titer (RFFIT): EU/ml was below 0.5 EU/ml, the ERA neutralizing antibody titer (RFFIT): EU/µM is below 0.02 EU/µM and the ERA neutralizing antibody titer (RFFIT): nM IC50 was above 4840 nM. In addition, the hRSV micro neutralization, strain Long on Hep2 cells in assay [2] was above 3 µM.

B12: NC41 (VHH)
VHH: EVQLVESGGGLVQAGGSLSISCAASGGSLSNYVLGWFRQAPGKEREFVAAINWRGDITIGPPNVEGRFTISRDNAKNTGYLQMNSLAPDDTAVYYCGAGTPLNPGAYIYDWSYDYWGRGTQVTVSS
For B12, in assay [4], the Neutralization IC50 (nM), B-1 (first assay) was 4710 nM and the Neutralization IC50 (nM), B-1 (second assay) came to 3290 nM. In assay [5], the Neutralization IC50 (nM), Long (first assay) was 202 nM and the Neutralization IC50 (nM), Long (second assay) came out at 122 nM.

B13: RSVNC41 (VHH)
VHH: B12 VHH
As for B13, the RSV neutralization IC50 (nM) (n = 2), A-2 in assay [8] worked out at 26 nM. Besides, in [9], the RSV neutralization IC50 (nM) (n = 2), B1 came out at 4000 nM. Besides, the RSV neutralization IC50 (nM) (n = 2), Long in [10] stood at 58 nM.

B14: NC41v03 (VHH)
VHH: B7 VHH with L20I, D55G, A75S
With B14, the Neutralization IC50 (nM), B-1 (first assay) in [4] was 1510 nM. For the same molecule, the Neutralization IC50 (nM), Long (first assay) in [5] turned out to be 255 nM.
